{"source": "paper PMC2844702", "about": "(Chemistry & biology, 2009)", "key": {"TrkB [1]": {"biological_target": "TrkB", "assay_type": "binding"}, "TrkB [2]": {"biological_target": "TrkB (UniProt Q16620)", "sequence (Q16620 32-430)": "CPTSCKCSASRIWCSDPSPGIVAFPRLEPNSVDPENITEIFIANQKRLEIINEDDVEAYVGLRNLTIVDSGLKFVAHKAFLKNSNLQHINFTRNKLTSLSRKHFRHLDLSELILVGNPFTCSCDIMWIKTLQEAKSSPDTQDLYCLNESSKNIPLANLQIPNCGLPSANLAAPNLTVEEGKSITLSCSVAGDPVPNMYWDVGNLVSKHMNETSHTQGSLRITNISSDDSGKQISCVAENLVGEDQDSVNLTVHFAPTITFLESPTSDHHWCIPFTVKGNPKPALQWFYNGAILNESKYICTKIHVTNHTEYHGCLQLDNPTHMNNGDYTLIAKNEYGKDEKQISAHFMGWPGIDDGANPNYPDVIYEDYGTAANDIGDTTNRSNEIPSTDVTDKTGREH", "details": "cited from earlier work"}, "TrkA 97-120": {"biological_target": "TrkA 97-120 (UniProt P04629)", "details": "cited from earlier work"}, "TrkA": {"biological_target": "TrkA (UniProt P04629)", "details": "cited from earlier work"}}}
{"molecule": "CN(C)CCC=C1c2ccccc2CCc2ccccc21", "note": "[amitriptyline]", "values": [{"measurement": "Kd", "setting": "TrkB [1]", "value": "~14000", "unit": "nM"}]}
{"molecule": "BDNF (from UniProt P23560)", "values": [{"measurement": "Kd", "setting": "TrkB [2]", "value": 1, "unit": "nM"}]}
{"molecule": "NGF (from UniProt P01139)", "values": [{"measurement": "Kd", "setting": "TrkA 97-120", "value": 1.3, "unit": "nM"}, {"measurement": "Kd", "setting": "TrkA", "value": 1, "unit": "nM"}]}
